Data taken from the supplement of paper PMC9732359.
± gives the uncertainty stated by the source.

Test: protein stability index of a GFP-peptide fusion (yeast GPS) (PSI 1-4); higher = more stable; sorted into four equal gates, so the index is relative within each strain
Outline: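 Yeast carrying a pooled library were grown to mid-log phase in leucine-free medium. Each library plasmid expresses Cherry and has a tiled 17-residue yeast protein peptide fused downstream of GFP. Cells were sorted into four equal gates by GFP/Cherry ratio, and plasmids from each gate were PCR-amplified, Illumina-sequenced and assigned to strains by barcode. Summing, across gates, the read frequency times the gate number gave each peptide's protein stability index.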

| Sequence | protein stability index (doa10∆) | protein stability index (pdr5∆) | protein stability index (san1∆) | protein stability index (ubr1∆) |
| --- | --- | --- | --- | --- |
| LNSMPNNVNEYSYTTIV [YJL039C/NUP192] | 2.69 ± 0.085 | 2.95 ± 0.092 | 2.75 ± 0.075 | 2.6 ± 0.058 |
| CCYFIEWKSNHKKKRSN [SRB8] | 1.81 ± 0.048 | 2.08 ± 0.054 | 2.1 ± 0.073 | 1.92 ± 0.048 |
| SMHLLKDWTDTFVYILE [SRB8] | 3.06 ± 0.057 | 2.95 ± 0.06 | 2.88 ± 0.047 | 2.97 ± 0.059 |
| ISFVLGVRSNHLRSNIL [SMC1] | 2.09 ± 0.061 | 2.16 ± 0.088 | 2.08 ± 0.097 | 2.47 ± 0.064 |
| GAMGLLSSAGAKSTVET [RIP1] | 2.01 ± 0.12 | 2.46 ± 0.11 | 2.14 ± 0.18 | 2.35 ± 0.09 |
| AFRTIESKSDDNSATSY [RRI1] | 3.06 ± 0.079 | 3.26 ± 0.079 | 3.15 ± 0.053 | 3.34 ± 0.091 |
| SEKGLLSATQFTQPALT [FAS1] | 2.44 ± 0.061 | 2.65 ± 0.047 | 2.73 ± 0.039 | 2.57 ± 0.038 |
| PNTKDAMSLYHSPFPFN [PRP8] | 2.64 ± 0.049 | 2.55 ± 0.053 | 2.63 ± 0.06 | 2.71 ± 0.036 |
| DFNQAKHEEIDTKNLYV [RPS10A] | 3.38 ± 0.16 | 2.81 ± 0.12 | 3.29 ± 0.078 | 3.07 ± 0.074 |
| KGLQIYQSSVQEPFLNS [PRP8] | 2.89 ± 0.05 | 2.94 ± 0.044 | 2.76 ± 0.048 | 2.83 ± 0.04 |
| LAGVLYESRNVAKRRFE [RRP6] | 2.76 ± 0.066 | 3.12 ± 0.061 | 2.93 ± 0.077 | 3.12 ± 0.047 |
| SDKAQLNVVMKNLERLR [SMC4] | 3.28 ± 0.099 | 3.46 ± 0.15 | 3.13 ± 0.11 | 2.72 ± 0.28 |
| SAGRLYACISSRPGQSG [RPS8A] | 2.81 ± 0.095 | 3.07 ± 0.093 | 3.13 ± 0.088 | 3.03 ± 0.088 |
| VTNSMRQTLAPYAVLSQ [YJR042W/NUP85] | 2.33 ± 0.065 | 2.83 ± 0.054 | 2.53 ± 0.051 | 2.62 ± 0.048 |
| DSESESGDKEATAPLIQ [RPN8] | 3.44 ± 0.19 | 3.44 ± 0.12 | 3.28 ± 0.093 | 3.49 ± 0.28 |
| VLSTEEILNIFKHISVK [RPO21] | 2.68 ± 0.13 | 3.44 ± 0.24 | 2.94 ± 0.12 | 1.6 ± 0.17 |
| LEGKGSLEEIIAEGQKK [RPP2B] | 2.5 ± 0.12 | 2.17 ± 0.072 | 3.1 ± 0.076 | 2.72 ± 0.046 |
| YGDRMKLAKNLQIGDVV [RPO31] | 2.94 ± 0.13 | 3.49 ± 0.21 | 3.34 ± 0.1 | 3.57 ± 0.21 |
| LLFAINSYQPSPFFVLD [SMC1] | 2.16 ± 0.06 | 2 ± 0.078 | 2.23 ± 0.082 | 2.57 ± 0.044 |
| SVREINLYMLVTTCVYL [SSN8] | 2.32 ± 0.057 | 1.67 ± 0.047 | 2.33 ± 0.065 | 1.92 ± 0.047 |
| HPIMETIVNDSNYDWLF [RPN9] | 2.42 ± 0.058 | 2.34 ± 0.057 | 2.16 ± 0.085 | 2.66 ± 0.052 |
| TDDQGRVIDDNNRRRSR [SIR3] | 3.66 ± 0.12 | 3.05 ± 0.24 | 3.39 ± 0.17 | – |
| NPLKNKQVLLRLNPYAK [RPL4A] | 1.34 ± 0.17 | 1.21 ± 0.11 | 1.15 ± 0.15 | 1.13 ± 0.18 |
| TKSETKQENETMQPPYI [MED11] | 2.95 ± 0.051 | 2.85 ± 0.059 | 2.7 ± 0.1 | 2.96 ± 0.042 |
| LEKKFPDRHVIFLAERR [RPS7B] | 2.77 ± 0.066 | 2.87 ± 0.058 | 2.91 ± 0.046 | 3.1 ± 0.042 |
| YGGSRCANCVKERIIRA [RPL34A] | 1.56 ± 0.061 | 2.81 ± 0.074 | 2.44 ± 0.082 | 1.57 ± 0.065 |

| Sequence | protein stability index (doa10∆) | protein stability index (pdr5∆) | protein stability index (san1∆) | protein stability index (ubr1∆) |
| --- | --- | --- | --- | --- |
| SDAVMAEHSQNKIDQSL [YJL041W/NSP1] | 3.08 ± 0.064 | 3.18 ± 0.044 | 3.08 ± 0.052 | 3.07 ± 0.056 |
| SQQLLEILVTELTAQGY [RPN2] | 1.65 ± 0.077 | 2.19 ± 0.079 | 1.93 ± 0.13 | 1.77 ± 0.066 |
| ELSTDIILKTRQINKLI [SRB7] | 1.2 ± 0.13 | 1.19 ± 0.066 | 1.37 ± 0.23 | 1.2 ± 0.13 |
| SSQKDGNDFKFNYQGDE [REC8] | 3.41 ± 0.067 | 3.45 ± 0.072 | 3.43 ± 0.051 | 3.4 ± 0.058 |
| ICSCVNRGVKLEIVYGY [RPP1] | 2.38 ± 0.1 | 2.63 ± 0.063 | 2.43 ± 0.08 | 2 ± 0.049 |
| LNINNPNFLIMQGKITK [SMC2] | 3.39 ± 0.26 | 2.47 ± 0.19 | 2.87 ± 0.13 | – |
| FFSSDWRFLQILRNGID [POP1] | 2.29 ± 0.073 | 2.27 ± 0.088 | 2.5 ± 0.1 | 2.18 ± 0.072 |
| DLRLGSQSLGVSNKFEK [PUP3] | 3.52 ± 0.14 | 3.52 ± 0.16 | 2.94 ± 0.13 | 3.62 ± 0.13 |
| DYPDDSGWTPFHIACSV [NAS6] | 3.37 ± 0.11 | 2.28 ± 0.099 | 2.48 ± 0.12 | 2.27 ± 0.29 |
| KTERVEDQKVVDKALLA [RPL6B] | 1.52 ± 0.17 | 1.43 ± 0.089 | 1.38 ± 0.15 | 1.19 ± 0.13 |
| DVKSSDSLKLNSKPVEL [YJL041W/NSP1] | 3.27 ± 0.098 | 3.09 ± 0.12 | 3.1 ± 0.14 | 3.23 ± 0.12 |
| LGKLQDVFNLLPNLGTP [RPN8] | 3.06 ± 0.12 | 3.29 ± 0.089 | 2.43 ± 0.085 | 2.82 ± 0.081 |
| NGGITNTATNALRPSDI [YOR098C/NUP1] | 2.63 ± 0.13 | 2.69 ± 0.14 | 2.11 ± 0.12 | 2.84 ± 0.12 |
| AIKYRPTSVKLLKTTVP [POP3] | 2.23 ± 0.037 | 2.3 ± 0.039 | 2.31 ± 0.057 | 2.14 ± 0.033 |
| FNAIDLARHLPAELDLR [RPC82] | 2.46 ± 0.09 | 2.56 ± 0.076 | 2.29 ± 0.083 | 2.99 ± 0.11 |
| EKSQEVEYVDPTVNRVP [RPN7] | – | – | – | 3.74 ± 0.27 |
| IKTKQMSLKKCQEEVST [SMC2] | 2.48 ± 0.098 | 3.02 ± 0.095 | 3.03 ± 0.088 | 3.27 ± 0.059 |
| AESFTDEADSSMTEASV [SNF2] | 3.36 ± 0.094 | 3.19 ± 0.092 | 3.39 ± 0.05 | 3.09 ± 0.089 |
| WADIFAKALDGQNLKDL [RPP1A] | 3.08 ± 0.11 | 3.31 ± 0.13 | 2.58 ± 0.24 | 2.94 ± 0.2 |
| NSKVNKLNIETMRKISS [DSN1] | 2.5 ± 0.17 | 2.43 ± 0.11 | 2.13 ± 0.12 | 2.95 ± 0.07 |
| REVGTKFTTVLAKILAR [ECM29] | 1.39 ± 0.086 | 1.52 ± 0.06 | 1.88 ± 0.097 | 1.44 ± 0.05 |
| KFQKLLQNSERDVELSS [SMC4] | 2.82 ± 0.065 | 3.18 ± 0.048 | 2.94 ± 0.041 | 3.05 ± 0.052 |
| NIGQQQVKKPRKQRVKK [SWI1] | 3.47 ± 0.12 | 3.35 ± 0.13 | 3.42 ± 0.084 | 3.48 ± 0.11 |
| DEHHESFELKEEDISDL [RRP6] | 3.01 ± 0.072 | 3.23 ± 0.084 | 2.9 ± 0.075 | 3.15 ± 0.059 |
| DELLSQLDLCKLYFQLF [SRP68] | 1.56 ± 0.1 | 1.67 ± 0.11 | 1.46 ± 0.15 | 1.72 ± 0.057 |
| DRVEDICERIFEQGQAL [RRI2] | 2.72 ± 0.12 | 3.02 ± 0.17 | 3.18 ± 0.22 | – |
